# Measurements published in patent publication US20200176073A1.
# Biological target: CXCR4 cognate ligand SDF1a (or CCL12) (UniProt P48061)
# Experiment: ELISA, water-soluble CXCR4 with CCL12 (SDF1a), assay concentrations 50 nM to 10 uM
# Sequence of CXCR4 cognate ligand SDF1a (or CCL12) (P48061 22-89 limits assumed): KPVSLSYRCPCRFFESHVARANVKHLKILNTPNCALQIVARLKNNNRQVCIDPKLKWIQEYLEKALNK
substance,measurement,value
"water-soluble CXCR4-QTY protein, produced in E. coli BL21 (DE3) and purified with 1D4 rho-tag monoclonal antibody (receptor)",Kd,0.08 µM
